By Km is commonly meant the concentration of substrate that gives half-maximal velocity.

Km and kcat data for three proteins are collected here from patent US5766896A, “Method of producing iodine by use of a copper containing oxidase enzyme” (Novo Nordisk Biotech Inc., priority 1994, dated 1998).

Substrate in data set [1]: CCn1c(=NN=c2sc3cc(S(=O)(=O)O)ccc3n2CC)sc2cc(S(=O)(=O)O)ccc21
Kind of data set: purified protein, by the assay type.

Substrate in data set [2]: COc1cc(C=NN=Cc2cc(OC)c(O)c(OC)c2)cc(OC)c1O
Kind of data set: r-MtL syringaldazine oxidation. The format is biochemical, Myceliophthora thermophila. The settings on record: other: optimal pH (7); 30.0 °C.

Setting [3] is: other: optimal pH of 4.1, pH 4.1, 30.0 °C.
Where [4] appears, read: other: from dependence of I^- oxidation rates on ABTS concentration, 20.0 °C.

B1: bilirubin oxidase (Myrothecium verrucaria) (Albifimbria verrucaria) (protein)
chain: VAQISPQYPMFTVPLPIPPVKQPRLTVTNPVNGQEIWYYEVEIKPFTHQVYPDLGSADLVGYDGMSPGPTFQVPRGVETVVRFINNAEAPNSVHLHGSFSRAAFDGWAEDITEPGSFKDYYYPNRQSARTLWYHDHAMHITAENAYRGQAGLYMLTDPAEDALNLPSGYGEFDIPMILTSKQYTANGNLVTTNGELNSFWGDVIHVNGQPWPFKNVEPRKYRFRFLDAAVSRSFGLYFADTDAIDTRLPFKVIASDSGLLEHPADTSLLYISMAERYEVVFDFSDYAGKTIELRNLGGSIGGIGTDTDYDNTDKVMRFVVADDTTQPDTSVVPANLRDVPFPSPTTNTPRQFRFGRTGPTWTINGVAFADVQNRLLANVPVGTVERWELINAGNGWTHPIHIHLVDFKVISRTSGNNARTVMPYESGLKDVVWLGRRETVVVEAHYAPFPGVYMFHCHNLIHEDHDMMAAFNATVLPDYGYNATVFVDPMEELWQARPYELGEFQAQSGQFSVQAVTERIQTMAEYRPYAAADE
B1: in data set [1] (setting [3]), the Michaelis constant (Km) stood at 120 ± 10 µM and the kcat is reported as 1310±40 turnover per minute.

B2: ceruloplasmin (porcine plasma) (Sus scrofa) (protein)
chain: KDKHYYIGIVETTWDYASDRGEKKLISVDKEQSNIYLQNGPNRIGRLYKKAIYLQYTDETFRTIIEKPVWLGFLGPIIKAETGDRVYVHFKNFASRPYTFHAHGMTYYKEHEGAIYPDNTTDFQKADDKVHPGEQYTYILHANPEQGPGKEDSNCVTRIYHSHIDAPKDIASGLIGPLIHCRKDSLDKEKEKNIDQEFVVMFSVVDENLSWYLEDNIKTYCSEPEKVEPDNEDFKESNRMYSVNGYSFGSLPGLSMCAEDRVKWYLFGMGNEIDVHAAFFHGQVLTNKNYRIDTINLFPATLFDAFMVAQNPGEWMLSCQNLNHLKAGLQAFFRVQDCKKTSSEDAIHGKHVRHYYIAAEEIIWNYAPSGIDTFTKENLTAPGSASEVFFTRGSTRIGGSYKKLVYREYKDASFTNRKERGPEEEHLGILGPVIWAEVGDTIRVTFRNKGAYPLSIEPTGVRVSKSQEGTYYASHYISSSENVPPSASHVAPKETFTYEWTVPKEVGPTYKDPVCLTKMYYSAVDPTKDIFTGLIGPMKICKKGSLLANGRLKDVDKEFYLFPTVFDENESLLLDDNIQMFTTEPNKVDKENEDFQESNKMHSMNGFMYGNQPGLNMCQGDSVVWYLFSAGNEVDVHGIYFSGNTYLSRGERRDTANLFPQTSLRLFMQPDTAGTFDVECLTTDHYTGGMKQKYTVNQCKQLNENSYLYLGERTYYIAAVEVEWDYSPSREWEKELHHSQERNVSNAFLDKGEFYIGSKYKKVVYRQFTDSTFQVPVQRKAKEEHLGILGPQLHADVGDKVNIVFKNTATRPYSIHAHGVKTESPTVIPTVPGETRTYVWKIPERSGAGIDDSPCIPWVYYSTVDQVKDLYSGLIGPLIVCRKPYLKVFNPIKNLEFSLLFLVFDENESWYLDDNIKTYSDHPEKVDKANDEFIESNKMHAINGRMFGNLQGLTMHVGDEVNWYLMGMGNEIDLHTVHFHGHSFQYQHRGIYTSDVFDIFPGTYQTLEMFPKTSGTWLLHCHVTDHIHAGMETTYTVLPNEETKSG
B2: in data set [1] (other: pH 4.1, pH 4.1, 30.0 °C), the Km is 110 ± 40 µM and the kcat is 9.3±1.3 turnover per minute.

B3: recombinant Myceliophthora thermophila laccase (r-MtL) (Thermothelomyces thermophilus ATCC 42464) (protein)
chain: QQSCNTPSNRACWTDGYDINTDYEVDSPDTGVVRPYTLTLTEVDNWTGPDGVVKEKVMLVNRPTIFADWGDTIQVTVINNLETNGTSIHWHGLHQKGTNLHDGANGITECPIPPKGGRKVYRFKAQQYGTSWYHSHFSAQYGNGVVGAIQINGPASLPYDTDLGVFPISDYYYSSADELVELTKNSGAPFSDNVLFNGTAKHPETGEGEYANVTLTPGRRHRLRLINTSVENHFQVSLVNHTMTIIAADMVPVNAMTVDSLFLGVGQRYDVVIEASRTPGNYWFNVTFGGGLLCGGSRNPYPAAIFHYAGAPGGPPTDEGKAPVDHNCLDLPNLKPVVARDVPLSGFAKRPDNTLDVTLDTTGTPLFVWKVNGSAINIDWGRPVVDYVLTQNTSFPPGYNIVEVNGADQWSYWLIENDPGAPFTLPHPMHLHGHDFYVLGRSPDESPASNERHVFDPARDAGLLSGANPVRRDVTMLPAFGWVVLAFRADNPGAWLFHCHIAWHVSGGLGVVYLERADDLRGAVSDADADDLDRLCADWRHYWPTNPYPKSDSGL
B3: the Michaelis-Menten constant (Km) in data set [2] amounted to 10 µM; in data set [1] (setting [4]) it was 6.4 ± 0.8 µM; in data set [1] (other: pH 4.1, pH 4.1), 5.6 ± 0.5 µM. In addition, the kcat was 400 turnover per minute in data set [2]; 860±40 turnover per minute in data set [1] (setting [4]); 1460±31 turnover per minute in data set [1] (other: pH 4.1, pH 4.1).
